Results taken from US11306156.

How the values were obtained:
[1] = biological target: D3H44 Fab heavy chain L124E_L143E_K145T, C-terminal ABD2-His6 tag; test: LCCA co-expression, SPR tag read-out; DNA 1:3 norm. to 1:1; competing light chain m7
[2] = biological target: D3H44 Fab heavy chain L124R_Q179K, C-terminal ABD2-His6 tag; test: as above
[3] = biological target: D3H44 Fab heavy chain L124E_L143E_K145T, C-terminal ABD2-His6 tag; test: LCCA co-expression, SPR tag read-out; DNA 1:3 norm. to 1:1; competing light chain m8
[4] = biological target: D3H44 Fab heavy chain L124R_Q179K, C-terminal ABD2-His6 tag; test: as above
[5] = biological target: D3H44 Fab heavy chain L124R_S186R, C-terminal ABD2-His6 tag; test: as above
[6] = biological target: D3H44 Fab heavy chain L124E_L143E_K145T, C-terminal ABD2-His6 tag; test: LCCA (co-expression, SPR read-out of light chain tags), L1:L2 DNA 1:3 normalised to 1:1; competitor m8
[7] = biological target: D3H44 Fab heavy chain L124R_S186K, C-terminal ABD2-His6 tag; test: as above
[8] = biological target: D3H44 Fab heavy chain L124R_S186R, C-terminal ABD2-His6 tag; test: as above
[9] = biological target: D3H44 Fab heavy chain L124E_L143E_K145T, C-terminal ABD2-His6 tag; test: LCCA set 9320 (co-expression; SPR read-out of light-chain tags; L1:L2 DNA 1:3, normalized to 1:1); competing light chain m9
[10] = biological target: D3H44 Fab heavy chain L124R_S186K, C-terminal ABD2-His6 tag; test: LCCA set 9488 (co-expression; SPR read-out of light-chain tags; L1:L2 DNA 1:3, normalized to 1:1); competing light chain m9
[11] = biological target: D3H44 Fab heavy chain L124E_L143D_K145M, C-terminal ABD2-His6 tag; test: LCCA set 9202 (co-expression; SPR read-out of light-chain tags; L1:L2 DNA 1:3, normalized to 1:1); competing light chain m13
[12] = biological target: D3H44 Fab heavy chain L124E_L143D_K145T, C-terminal ABD2-His6 tag; test: LCCA set 9240 (co-expression; SPR read-out of light-chain tags; L1:L2 DNA 1:3, normalized to 1:1); competing light chain m13
[13] = biological target: D3H44 Fab heavy chain L124R_S186R, C-terminal ABD2-His6 tag; test: LCCA set 9544 (co-expression; SPR read-out of light-chain tags; L1:L2 DNA 1:3, normalized to 1:1); competing light chain m13
[14] = biological target: D3H44 Fab heavy chain L124E_L143E_K145M, C-terminal ABD2-His6 tag; test: LCCA co-expression, SPR tag read-out; DNA 1:3 norm. to 1:1; competing light chain m7
[15] = biological target: D3H44 Fab heavy chain L124E_L143D_K145T, C-terminal ABD2-His6 tag; test: LCCA co-expression, SPR tag read-out; DNA 1:3 norm. to 1:1; competing light chain m8
[16] = biological target: D3H44 Fab heavy chain L124E_L143E_K145M, C-terminal ABD2-His6 tag; test: as above
[17] = biological target: D3H44 Fab heavy chain L124E_L143D_K145M, C-terminal ABD2-His6 tag; test: LCCA (co-expression, SPR read-out of light chain tags), L1:L2 DNA 1:3 normalised to 1:1; competitor m9
[18] = biological target: D3H44 Fab heavy chain L124E_L143D_K145T, C-terminal ABD2-His6 tag; test: as above
[19] = biological target: D3H44 Fab heavy chain L124R_Q179K, C-terminal ABD2-His6 tag; test: as above
[20] = biological target: D3H44 Fab heavy chain L124E_L143D_K145M, C-terminal ABD2-His6 tag; test: LCCA (co-expression, SPR read-out of light chain tags), L1:L2 DNA 1:3 normalised to 1:1; competitor m10
[21] = biological target: D3H44 Fab heavy chain L124R_Q179K, C-terminal ABD2-His6 tag; test: as above
[22] = biological target: D3H44 Fab heavy chain L124E_L143D_K145M, C-terminal ABD2-His6 tag; test: LCCA (co-expression, SPR read-out of light chain tags), L1:L2 DNA 1:3 normalised to 1:1; competitor m11
[23] = biological target: D3H44 Fab heavy chain L124E_L143D_K145T, C-terminal ABD2-His6 tag; test: as above
[24] = biological target: D3H44 Fab heavy chain L124R_Q179K, C-terminal ABD2-His6 tag; test: as above
[25] = biological target: D3H44 Fab heavy chain L124E_L143E_K145M, C-terminal ABD2-His6 tag; test: LCCA set 9266 (co-expression; SPR read-out of light-chain tags; L1:L2 DNA 1:3, normalized to 1:1); competing light chain m9
[26] = biological target: D3H44 Fab heavy chain L124E_L143E_K145T, C-terminal ABD2-His6 tag; test: LCCA set 9316 (co-expression; SPR read-out of light-chain tags; L1:L2 DNA 1:3, normalized to 1:1); competing light chain m9
[27] = biological target: D3H44 Fab heavy chain L124R_Q179K, C-terminal ABD2-His6 tag; test: LCCA set 9388 (co-expression; SPR read-out of light-chain tags; L1:L2 DNA 1:3, normalized to 1:1); competing light chain m9
[28] = biological target: D3H44 Fab heavy chain L124E_L143E_K145M, C-terminal ABD2-His6 tag; test: LCCA set 9259 (co-expression; SPR read-out of light-chain tags; L1:L2 DNA 1:3, normalized to 1:1); competing light chain m10
[29] = biological target: D3H44 Fab heavy chain L124E_L143E_K145T, C-terminal ABD2-His6 tag; test: LCCA set 9271 (co-expression; SPR read-out of light-chain tags; L1:L2 DNA 1:3, normalized to 1:1); competing light chain m12
[30] = biological target: D3H44 Fab heavy chain L124E_L143E_K145T, C-terminal ABD2-His6 tag; test: LCCA set 9298 (co-expression; SPR read-out of light-chain tags; L1:L2 DNA 1:3, normalized to 1:1); competing light chain m10
[31] = biological target: D3H44 Fab heavy chain L124R_D146N_Q179K, C-terminal ABD2-His6 tag; test: LCCA set 9350 (co-expression; SPR read-out of light-chain tags; L1:L2 DNA 1:3, normalized to 1:1); competing light chain m12
[32] = biological target: D3H44 Fab heavy chain L124R_Q179K, C-terminal ABD2-His6 tag; test: LCCA set 9384 (co-expression; SPR read-out of light-chain tags; L1:L2 DNA 1:3, normalized to 1:1); competing light chain m10
[33] = biological target: D3H44 Fab heavy chain L124A_L143F_Q179K, ABD2-His6 tagged; test: LCCA, SPR of light chain tags; L1:L2 DNA 1:3 normalized to 1:1; competing light chain m12
[34] = biological target: D3H44 Fab heavy chain L124W_L143E_K145T_Q179E, ABD2-His6 tagged; test: as above
[35] = biological target: D3H44 Fab heavy chain L124W_L143E_K145T_Q179E, ABD2-His6 tagged; test: LCCA, SPR of light chain tags; L1:L2 DNA 1:9 normalized to 1:1; competing light chain m12
[36] = biological target: D3H44 light chain Q38R_Q124R_Q160K_T178R; test: LCCA, SPR tag readout, L1:L2 DNA 1:3 normalized to 1:1; competitor m19
[37] = biological target: D3H44 light chain Q38E_Q124E_Q160E_T180E; test: LCCA, SPR tag readout, L1:L2 DNA 1:3 normalized to 1:1; competitor m26
[38] = biological target: D3H44 light chain Q38R_Q124R_Q160K_T178R; test: LCCA, SPR tag readout, L1:L2 DNA 1:9 normalized to 1:1; competitor m19
[39] = biological target: D3H44 light chain Q38E_Q124E_Q160E_T180E; test: LCCA, SPR tag readout, L1:L2 DNA 1:9 normalized to 1:1; competitor m26
[40] = biological target: tissue factor (TF) antigen (UniProt P13726); test: SPR (ProteOn XPR36), Fab captured on anti-penta His, TF injected, 1:1 model
[41] = biological target: tissue factor (TF) antigen (UniProt P13726); test: SPR (ProteOn XPR36), Fab captured on anti-penta His, TF injected at 0.74-60 nM, 1:1 model; median

## D3H44 light chain V133G_S176D_T178E_T180E, N-terminal HA or FLAG tag
[1]
  H1L1:H1L2 normalized median ratio (% (ratio normalized to 100)): 6
[2]
  H2L2:H2L1 normalized median ratio (% (ratio normalized to 100)): 90
[3]
  H1L1:H1L2 normalized median ratio (% (ratio normalized to 100)): 5
[4]
  H2L2:H2L1 normalized median ratio (% (ratio normalized to 100)): 90
[5]
  H2L2:H2L1 normalized median ratio (% (ratio normalized to 100)): 91
[6]
  H1L1:H1L2 normalized median ratio: 13%
[7]
  H2L2:H2L1 normalized median ratio: 93%
[8]
  H2L2:H2L1 normalized median ratio: 94%
[9]
  H1L1:H1L2 normalized median ratio (H1L2 part): 14%
[10]
  H2L2:H2L1 normalized median ratio (H2L2 part): 91%
[11]
  H1L1:H1L2 normalized median ratio (H1L2 part): 16%
[12]
  H1L1:H1L2 normalized median ratio (H1L2 part): 13%
[13]
  H2L2:H2L1 normalized median ratio (H2L2 part): 92%

## D3H44 light chain Q124E_V133G_S176D_T178E_T180E, N-terminal HA or FLAG tag
[14]
  H1L1:H1L2 normalized median ratio (% (ratio normalized to 100)): 8
[1]
  H1L1:H1L2 normalized median ratio (% (ratio normalized to 100)): 5
[2]
  H2L2:H2L1 normalized median ratio (% (ratio normalized to 100)): 92
[15]
  H1L1:H1L2 normalized median ratio (% (ratio normalized to 100)): 8
[16]
  H1L1:H1L2 normalized median ratio (% (ratio normalized to 100)): 5
[4]
  H2L2:H2L1 normalized median ratio (% (ratio normalized to 100)): 92
[17]
  H1L1:H1L2 normalized median ratio: 8%
[18]
  H1L1:H1L2 normalized median ratio: 8%
[19]
  H2L2:H2L1 normalized median ratio: 92%
[20]
  H1L1:H1L2 normalized median ratio: 9%
[21]
  H2L2:H2L1 normalized median ratio: 92%
[22]
  H1L1:H1L2 normalized median ratio: 10%
[23]
  H1L1:H1L2 normalized median ratio: 11%
[24]
  H2L2:H2L1 normalized median ratio: 93%
[25]
  H1L1:H1L2 normalized median ratio (H1L2 part): 16%
[26]
  H1L1:H1L2 normalized median ratio (H1L2 part): 12%
[27]
  H2L2:H2L1 normalized median ratio (H2L2 part): 92%
[28]
  H1L1:H1L2 normalized median ratio (H1L2 part): 16%
[29]
  H1L1:H1L2 normalized median ratio (H1L2 part): 5%
[30]
  H1L1:H1L2 normalized median ratio (H1L2 part): 12%
[31]
  H2L2:H2L1 normalized median ratio (H2L2 part): 82%
[32]
  H2L2:H2L1 normalized median ratio (H2L2 part): 92%

## D3H44 light chain Q124K_V133A_S176T_T178R, HA or FLAG tagged
[33]
  H1L1:H1L2 normalized median ratio: 5%
[34]
  H2L2:H2L1 normalized median ratio: 89%
[35]
  H2L2:H2L1 normalized median ratio: 92%

## D3H44 Fab heavy chain Q39E_L143E_K145T_H172R_Q179E
[36]
  H1L1:H1L2 normalized median ratio: 97%
[37]
  H1L1:H1L2 normalized median ratio: 3%
[38]
  H1L1:H1L2 normalized median ratio: 95%
  H1L1:H1L2 normalized median scalar value ln(r1/f1): 2.96
[39]
  H1L1:H1L2 normalized median ratio: 5%

## wild-type D3H44 Fab heterodimer constructs (Fab constructs containing HA tag or FLAG tag)
[40]
  fold difference between the maximum and minimum KD values: 2.6 fold
[41]
  Kd: 0.15 nM
